Changes are numbered by the printed parent chain.
T1: Plasma VII (UniProt P08709 61-466)
T1 construct: also called Factor VII
T1 sequence (looked up): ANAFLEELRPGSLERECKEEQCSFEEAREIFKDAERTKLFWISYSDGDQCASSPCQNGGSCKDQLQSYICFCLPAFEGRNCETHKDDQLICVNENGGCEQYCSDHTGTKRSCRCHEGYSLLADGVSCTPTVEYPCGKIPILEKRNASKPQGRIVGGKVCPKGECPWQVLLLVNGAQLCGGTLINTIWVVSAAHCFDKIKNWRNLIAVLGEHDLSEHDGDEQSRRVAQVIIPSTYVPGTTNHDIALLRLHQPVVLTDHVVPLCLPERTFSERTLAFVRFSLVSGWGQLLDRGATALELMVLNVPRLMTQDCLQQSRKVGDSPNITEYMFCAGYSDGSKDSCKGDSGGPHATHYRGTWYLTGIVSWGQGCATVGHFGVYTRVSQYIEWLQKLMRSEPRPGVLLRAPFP

B1: murine anti-Factor IX monoclonal antibody BC2 (antibody, mouse IgG2a, V domains shown)
VH: QIQLVQSGPELKKPGETVKISCKASGYTFTNYGMNWVKQAPGKGLKWMGWINTRNGKSTYVDDFKGRFAFSLESSASTANLQIDNLKDEDTATYFCTREGNMDGYFPFTYWGQGTLVTVSA
VL: QIVLSQSPAILSASPGEKVTMTCRASSSVNYMHWYQQKPGSSPKPWIYATSNLASGVPARFSGSGSGTSYSLTISRVEAEDAATYYCQQWSINPRTFGGGTKLEIKR
notes: also called BC2 mAb; BC2 Antibody
B2: humanized anti-human Factor IX monoclonal antibody SB 249417 (antibody, V domains shown)
VH: QVQLVQSGSELKKPGASVKVSCKASGYTFTNYGMNWVRQAPGQGLKWMGWINTRNGKSTYVDDFKGRFVFSLDSSVSTAYLQISSLKADDTAVYYCTREGNMDGYFPFTYWGQGTLVTVSS
VL: QIVLTQSPSSLSASVGDRVTITCRASSSVNYMHWYQQKPGKAPKPWIYATSNLASGVPSRFSGSGSGTDYTFTISSLQPEDIATYYCQQWSINPRTFGQGTKVEIKR
notes: also called F9HZHC 1-1 / F9HZLC 2-0
B3: mouse-human chimeric anti-Factor IX monoclonal antibody chαFIX (antibody, V domains shown)
VH: B1 VH
VL: QIVLSQSPAILSASPGEKVTMTCRASSSVNYMHWYQQKPGSSPKPWIYATSNLASGVPARFSGSGSGTSYSLTISRVEAEDAATYYCQQWSINPRTFGGGTKLEIK
notes: BC2 variable regions with human constant regions; also called Chf9; F9CHHC / F9CHLC
B4: humanized anti-human Factor IX monoclonal antibody SB 249415 (antibody, human IgG1, V domains shown)
VH: B2 VH
VL: EIVLTQSPATLSLSPGERATLSCRASSSVNYMHWYQQRPGQAPKPWIYATSNLASGVPARFSGSGSGTDFTLTISSLEPEDFAVYYCQQWSINPRTFGGGTKVEIKR
notes: Human IgG1 and kappa constant regions from the vectors; also called F9HZHC 1-1 / F9HZLC 1-1
B5: humanized anti-human Factor IX monoclonal antibody SB 249413 (antibody, human IgG1, V domains shown)
VH: B2 VH with K46E, S74T, T97A
VL: B4 VL with K44R, P45L, W46L, V57I
notes: also called F9HZHC 1-0 / F9HZLC 1-0
B6: humanized anti-human Factor IX monoclonal antibody SB 249416 (antibody, human IgG1, V domains shown)
VH: B2 VH
VL: B4 VL with F70Y
notes: Human IgG1 and kappa constant regions from the vectors; also called F9HZHC 1-1 / F9HZLC 1-2
B7: humanized anti-human Factor IX monoclonal antibody SB 257731 (antibody, human IgG1, V domains shown)
VH: B2 VH
VL: QIVLTQSPATLSLSPGERATLSCRASSSVNYMHWYQQRPGQAPKPWIYATSNLASGVPARFSGSGSGTDYTLTISSLEPEDFAVYYCQQWSINPRTFGGGTKVEIK
notes: Human IgG1 and kappa constant regions from the vectors; also called F9HZHC 1-1 / F9HZLC 1-3
B8: humanized anti-human Factor IX monoclonal antibody SB 257732 (antibody, human IgG1, V domains shown)
VH: B2 VH with V2I, K46E, S74T, D89E, Y95F
VL: B2 VL with F72L, I82F, Q99G, V103L
notes: Human IgG1 and kappa constant regions from the vectors; also called F9HZHC 3-0 / F9HZLC 3-0

Tests used:
[1] = biological target: T2, Recombinant human Factor IX (rhFIX, Genetics Institute) (human, UniProt P00740 47-461); test: titration calorimetry
Description: (§1) The interactions between rhFIX and SB 249417 , BC2 and other humanized constructs were characterized by titration microcalorimetry, which measures binding interactions in solution from the intrinsic heat of binding. Nine injections of 106 uM FIX were made into the calorimeter containing 2 uM mAb SB 249417. Binding was detected in the first 4 injections as exothermic heats. At the last 5 injections the mAb binding sites were saturated with FIX and only background heats of mixing were observed. […] Nonlinear least squares analysis of the data yield the binding affinity.

human Factor IX = human Factor IX (human, UniProt P00740 47-461); test: cell-based or functional assay
[2] = biological target: T2, Recombinant human Factor IX (rhFIX, …); test: SPR (BIAcore), calculated from kinetics
Description: (§2) The kinetics of Factor IX binding to SB 249417 was assessed by BIAcore analysis with antibody bound to an immobilized protein A surface. Recombinant human Factor IX (rhFIX, Genetics Institute) at 49 nM was used and measurements performed in the presence of 5 mM Ca²⁺.

[3] = biological target: T2, Recombinant human Factor IX (rhFIX, …); test: titration calorimetry, 37 C, 10 mM CaCl2
Description: as §1

[4] = biological target: IX K5A (Factor IX having a lysine to alanine substitution at residue 5) (UniProt P00740 47-461, K5A); test: SPR (BiaCore 2000), BC2 coupled to the chip, 200 nM construct, 5 mM CaCl2
Description: (§3) A library of chimeric constructs composed of sequences of Factor IX spliced into the framework of the homologous protein Factor VII was constructed and used to map the epitope for the Factor IX BC2 mAb. See Cheung et al., Thromb. Res. 80, 419-427 (1995). Binding was measured using a BiaCore 2000 surface plasmon resonance device. The BC2 antibody was coupled directly to the chip using the NHS/EDC reaction. Binding was measured by 2 min of contact time at 20 uL/min with 200 nM of each of the given constructs in 25 mM MOPS, pH 7.4, 0.15 M NaCl, 5 mM CaCl2. Dissociation was monitored for 3 min using the same buffer with no protein. No binding was detected to the wild type construct in the presence of 50 mM EDTA.

Plasma VII = biological target: T1, Plasma VII; test: SPR (BiaCore 2000), BC2 coupled to the chip, construct injected, 5 mM CaCl2
Description: as §3

VII-A/IX = biological target: T3, VII-A/IX (UniProt P08709 61-105; P00740 93-461, limits assumed); test: as above
T3 construct: The make-up is read from the label by analogy with IX-A/VII
Description: as §3

[5] = biological target: T2, Recombinant human Factor IX (rhFIX, …); test: SPR (BIAcore), antibody bound to immobilized protein A, Factor IX in solution
Description: as §2

[6] = biological target: T2, Recombinant human Factor IX (rhFIX, …); test: titration calorimetry, calculated for 25 C by the van't Hoff equation, 10 mM CaCl2
Description: as §1

[7] = biological target: T2, Recombinant human Factor IX (rhFIX, …); test: biosensor (BIAcore)
Description: as §2

[8] = biological target: T2, Recombinant human Factor IX (rhFIX, …); test: isothermal titration calorimetry
Description: as §1

[9] = biological target: T2, Recombinant human Factor IX (rhFIX, …); test: isothermal titration calorimetry, 25 C
Description: as §1

[10] = biological target: T2, Recombinant human Factor IX (rhFIX, …); test: titration microcalorimetry, 106 uM FIX injected into 2 uM mAb
Description: as §1

[11] = biological target: T2, Recombinant human Factor IX (rhFIX, …); test: SPR (BIAcore), antibody bound to immobilized protein A, rhFIX in solution, 5 mM Ca2+
Description: as §2

T2 sequence (P00740 47-461 limits assumed): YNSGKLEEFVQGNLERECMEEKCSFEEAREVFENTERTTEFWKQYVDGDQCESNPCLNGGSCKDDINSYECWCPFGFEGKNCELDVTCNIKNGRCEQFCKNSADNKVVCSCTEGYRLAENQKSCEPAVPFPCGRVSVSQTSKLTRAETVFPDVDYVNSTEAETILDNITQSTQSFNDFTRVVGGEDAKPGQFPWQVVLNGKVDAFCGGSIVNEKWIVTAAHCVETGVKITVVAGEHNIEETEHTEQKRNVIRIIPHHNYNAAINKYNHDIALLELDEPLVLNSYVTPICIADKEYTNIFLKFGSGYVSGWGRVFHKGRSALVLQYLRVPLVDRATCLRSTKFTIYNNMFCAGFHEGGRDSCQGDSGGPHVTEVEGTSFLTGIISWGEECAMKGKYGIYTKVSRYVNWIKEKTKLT
Sequence of IX K5A (Factor IX having a lysine to alanine substitution at residue 5) (P00740 47-461 K51A): as the sequence (P00740 47-461 limits assumed) above, with K5A counted along it
Sequence of human Factor IX (P00740 47-461 limits assumed): as the sequence (P00740 47-461 limits assumed) above

Binder	Molar Binding Ratio FIX/mAb [1] [FIX/mAb]	Kd [2] [nM]	Kd [3] [nM]	koff [5] [s⁻¹]	kon [5] [M⁻¹ s⁻¹]	Kd [6] [nM]	also measured
B1	1.4	1.9	20	0.00091	480000	10	IC50, nM (aPTT clotting time of human plasma) (human Factor IX): ~50 nM; binding result [4]: binds; binding result (Plasma VII): no binding (tested: 200 nM); binding result (VII-A/IX): no binding (tested: 200 nM)
B2	1.5	1.9	12			4	Kd [7]: 2 nM; koff [7]: 0.0004 s⁻¹; kon [7]: 200000 M⁻¹ s⁻¹; Stoichiometry of Factor IX Binding [8]: 1.5 moles Factor IX : 1 mole mAb; Kd [9]: 4 nM; molar binding ratio at the equivalence point [10]: ~2 FIX per mAb; koff [11]: 0.00041 s⁻¹; kon [11]: 200000 M⁻¹ s⁻¹
B3		1.3		0.0003	240000		
B4	1.7	1.1 to 2.3	7	0.00018	750000	3	
B5	1.9	3.7 to 5.1	12	0.0028	650000	6	
B6		0.8		0.00041	520000		
B7		1.1		0.00099	920000		
B8	1.8	1.5	9	0.0012	1.1e+06	4	

Reference: patent publication US20070224198A1 (GlaxoSmithKline, published 2007)
